Source: paper PMC12416549 (2024)

T1: TNFR1 (Homo sapiens, UniProt P19438)
T1 chain: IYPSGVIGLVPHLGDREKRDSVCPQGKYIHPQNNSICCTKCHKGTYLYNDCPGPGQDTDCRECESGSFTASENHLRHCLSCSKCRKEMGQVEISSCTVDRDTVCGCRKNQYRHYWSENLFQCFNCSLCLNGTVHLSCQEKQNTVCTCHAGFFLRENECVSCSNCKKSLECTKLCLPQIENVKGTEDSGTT


Molecular target: T1, TNFR1
Experiment: yeast display SC50

apparent Kd (screen) [nM] | Binder
0.653 | L75E (designed binder) MTLQELLREEALRRAEAEAFRYALELLAEKFPEQKEYLLDLAEEIESQIRSLSGVDVEDVRKFLDKEWAWVKELEAEHPAELAEVEAARAARLAELRAEVEAKVAA
13.8 | L64V (designed binder) MTLQELLREEALRRAEAEAFRYALELLAEKFPEQKEYLLDLAEEIESQIRSLSGVDVEDVRKFVDKEWAWVKELLAEHPAELAEVEAARAARLAELRAEVEAKVAA
0.446 | A17T (designed binder) MTLQELLREEALRRAETEAFRYALELLAEKFPEQKEYLLDLAEEIESQIRSLSGVDVEDVRKFLDKEWAWVKELLAEHPAELAEVEAARAARLAELRAEVEAKVAA
0.49 | E33R (designed binder) MTLQELLREEALRRAEAEAFRYALELLAEKFPRQKEYLLDLAEEIESQIRSLSGVDVEDVRKFLDKEWAWVKELLAEHPAELAEVEAARAARLAELRAEVEAKVAA
0.653 | A15F (designed binder) MTLQELLREEALRRFEAEAFRYALELLAEKFPEQKEYLLDLAEEIESQIRSLSGVDVEDVRKFLDKEWAWVKELLAEHPAELAEVEAARAARLAELRAEVEAKVAA
0.539 | Y37K (designed binder) MTLQELLREEALRRAEAEAFRYALELLAEKFPEQKEKLLDLAEEIESQIRSLSGVDVEDVRKFLDKEWAWVKELLAEHPAELAEVEAARAARLAELRAEVEAKVAA
2.05 | A11L (designed binder) MTLQELLREELLRRAEAEAFRYALELLAEKFPEQKEYLLDLAEEIESQIRSLSGVDVEDVRKFLDKEWAWVKELLAEHPAELAEVEAARAARLAELRAEVEAKVAA
0.539 | A91V (designed binder) MTLQELLREEALRRAEAEAFRYALELLAEKFPEQKEYLLDLAEEIESQIRSLSGVDVEDVRKFLDKEWAWVKELLAEHPAELAEVEAARAVRLAELRAEVEAKVAA
0.79 | R8T (designed binder) MTLQELLTEEALRRAEAEAFRYALELLAEKFPEQKEYLLDLAEEIESQIRSLSGVDVEDVRKFLDKEWAWVKELLAEHPAELAEVEAARAARLAELRAEVEAKVAA
0.49 | R21P (designed binder) MTLQELLREEALRRAEAEAFPYALELLAEKFPEQKEYLLDLAEEIESQIRSLSGVDVEDVRKFLDKEWAWVKELLAEHPAELAEVEAARAARLAELRAEVEAKVAA
0.869 | E9V (designed binder) MTLQELLRVEALRRAEAEAFRYALELLAEKFPEQKEYLLDLAEEIESQIRSLSGVDVEDVRKFLDKEWAWVKELLAEHPAELAEVEAARAARLAELRAEVEAKVAA
0.446 | E86D (designed binder) MTLQELLREEALRRAEAEAFRYALELLAEKFPEQKEYLLDLAEEIESQIRSLSGVDVEDVRKFLDKEWAWVKELLAEHPAELAEVDAARAARLAELRAEVEAKVAA
5.31 | F63K (designed binder) MTLQELLREEALRRAEAEAFRYALELLAEKFPEQKEYLLDLAEEIESQIRSLSGVDVEDVRKKLDKEWAWVKELLAEHPAELAEVEAARAARLAELRAEVEAKVAA
0.593 | K30R (designed binder) MTLQELLREEALRRAEAEAFRYALELLAERFPEQKEYLLDLAEEIESQIRSLSGVDVEDVRKFLDKEWAWVKELLAEHPAELAEVEAARAARLAELRAEVEAKVAA
